Target: T1, biotinylated human FcRn-huM4Fc fusion protein (human, biotinylated with BiotinXX sulfosuccinimidyl ester (sites not given))
T1 construct: also called bhFcRnFc; biotinylated Fc/FcRn fusion protein
Assay: AlphaScreen competition at pH 6.0: antibody in solution against human IgG1 acceptor beads for bhFcRnFc on streptavidin donor beads; plotted is IC50 (ug/ml by paragraph 723, no unit on the sheet)

| binding result | Binder |
| --- | --- |
| binds | K288E (antibody, human IgG1, kappa, EU numbering, EU N297 = residue 300 of the chain; the sheets number them 2 and 4; also called huCBE11 altered antibody with mutation K288E; copies: 2 + 2) heavy: not shown light: DIQMTQSPSSLSASVGDRVTITCKAGQDIKSYLSWYQQKPGKAPKLLIYYATRLADGVPSRFSGSGSGTDYTLTISSLQPEDFATYYCLQHGESPWTFGGGTKLEIKRTVAAPSVFIFPPSDEQLKSGTASVVCLLNNFYPREAKVQWKVDNALQSGNSQESVTEQDSKDSTYSLSSTLTLSKADYEKHKVYACEVTHQGLSSPVTKSFNRGEC |
| binds | A287E (antibody, EU numbering, EU N297 = residue 300 of the chain; the sheets number them 2 and 4; also called huCBE11 altered antibody with mutation A287E; copies: 2 + 2) heavy: not shown light: DIQMTQSPSSLSASVGDRVTITCKAGQDIKSYLSWYQQKPGKAPKLLIYYATRLADGVPSRFSGSGSGTDYTLTISSLQPEDFATYYCLQHGESPWTFGGGTKLEIKRTVAAPSVFIFPPSDEQLKSGTASVVCLLNNFYPREAKVQWKVDNALQSGNSQESVTEQDSKDSTYSLSSTLTLSKADYEKHKVYACEVTHQGLSSPVTKSFNRGEC |
| binds | R255L (antibody, EU numbering, EU N297 = residue 300 of the chain; the sheets number them 2 and 4; also called huCBE11 altered antibody with mutation R255L; copies: 2 + 2) heavy: not shown light: DIQMTQSPSSLSASVGDRVTITCKAGQDIKSYLSWYQQKPGKAPKLLIYYATRLADGVPSRFSGSGSGTDYTLTISSLQPEDFATYYCLQHGESPWTFGGGTKLEIKRTVAAPSVFIFPPSDEQLKSGTASVVCLLNNFYPREAKVQWKVDNALQSGNSQESVTEQDSKDSTYSLSSTLTLSKADYEKHKVYACEVTHQGLSSPVTKSFNRGEC |
| binds | K288M (antibody, EU numbering, EU N297 = residue 300 of the chain; the sheets number them 2 and 4; also called huCBE11 altered antibody with mutation K288M; copies: 2 + 2) heavy: not shown light: DIQMTQSPSSLSASVGDRVTITCKAGQDIKSYLSWYQQKPGKAPKLLIYYATRLADGVPSRFSGSGSGTDYTLTISSLQPEDFATYYCLQHGESPWTFGGGTKLEIKRTVAAPSVFIFPPSDEQLKSGTASVVCLLNNFYPREAKVQWKVDNALQSGNSQESVTEQDSKDSTYSLSSTLTLSKADYEKHKVYACEVTHQGLSSPVTKSFNRGEC |
| binds | K288D (antibody, human IgG1, kappa, EU numbering, EU N297 = residue 300 of the chain; the sheets number them 2 and 4; also called huCBE11 altered antibody with mutation K288D; copies: 2 + 2) heavy: not shown light: DIQMTQSPSSLSASVGDRVTITCKAGQDIKSYLSWYQQKPGKAPKLLIYYATRLADGVPSRFSGSGSGTDYTLTISSLQPEDFATYYCLQHGESPWTFGGGTKLEIKRTVAAPSVFIFPPSDEQLKSGTASVVCLLNNFYPREAKVQWKVDNALQSGNSQESVTEQDSKDSTYSLSSTLTLSKADYEKHKVYACEVTHQGLSSPVTKSFNRGEC |

Target: T1, biotinylated human FcRn-huM4Fc fusion …
Assay: FRET competition at pH 5.8: unlabelled competitor mAb against Eu-labelled h5C8 for bhFcRnFc; plotted is mutant IC50/wt IC50

| Binder | binding result |
| --- | --- |
| A287D (antibody, EU numbering, EU N297 = residue 300 of the chain; the sheets number them 2 and 4; also called huCBE11 altered antibody with mutation A287D; copies: 2 + 2) heavy: not shown light: DIQMTQSPSSLSASVGDRVTITCKAGQDIKSYLSWYQQKPGKAPKLLIYYATRLADGVPSRFSGSGSGTDYTLTISSLQPEDFATYYCLQHGESPWTFGGGTKLEIKRTVAAPSVFIFPPSDEQLKSGTASVVCLLNNFYPREAKVQWKVDNALQSGNSQESVTEQDSKDSTYSLSSTLTLSKADYEKHKVYACEVTHQGLSSPVTKSFNRGEC | binds |
| huCBE11 altered antibody with mutation M252S (antibody, human IgG1, kappa, Position is in EU numbering) heavy: not shown light: DIQMTQSPSSLSASVGDRVTITCKAGQDIKSYLSWYQQKPGKAPKLLIYYATRLADGVPSRFSGSGSGTDYTLTISSLQPEDFATYYCLQHGESPWTFGGGTKLEIKRTVAAPSVFIFPPSDEQLKSGTASVVCLLNNFYPREAKVQWKVDNALQSGNSQESVTEQDSKDSTYSLSSTLTLSKADYEKHKVYACEVTHQGLSSPVTKSFNRGEC | binds |
| huCBE11 altered antibody with mutation M252T (antibody, human IgG1, kappa, Position is in EU numbering) heavy: not shown light: DIQMTQSPSSLSASVGDRVTITCKAGQDIKSYLSWYQQKPGKAPKLLIYYATRLADGVPSRFSGSGSGTDYTLTISSLQPEDFATYYCLQHGESPWTFGGGTKLEIKRTVAAPSVFIFPPSDEQLKSGTASVVCLLNNFYPREAKVQWKVDNALQSGNSQESVTEQDSKDSTYSLSSTLTLSKADYEKHKVYACEVTHQGLSSPVTKSFNRGEC | binds |
| R255M (antibody, EU numbering, EU N297 = residue 300 of the chain; the sheets number them 2 and 4; also called huCBE11 altered antibody with mutation R255M; copies: 2 + 2) heavy: not shown light: DIQMTQSPSSLSASVGDRVTITCKAGQDIKSYLSWYQQKPGKAPKLLIYYATRLADGVPSRFSGSGSGTDYTLTISSLQPEDFATYYCLQHGESPWTFGGGTKLEIKRTVAAPSVFIFPPSDEQLKSGTASVVCLLNNFYPREAKVQWKVDNALQSGNSQESVTEQDSKDSTYSLSSTLTLSKADYEKHKVYACEVTHQGLSSPVTKSFNRGEC | binds |
| huCBE11 altered antibody with mutation S304D (antibody, human IgG1, kappa, Position is in EU numbering) heavy: not shown light: DIQMTQSPSSLSASVGDRVTITCKAGQDIKSYLSWYQQKPGKAPKLLIYYATRLADGVPSRFSGSGSGTDYTLTISSLQPEDFATYYCLQHGESPWTFGGGTKLEIKRTVAAPSVFIFPPSDEQLKSGTASVVCLLNNFYPREAKVQWKVDNALQSGNSQESVTEQDSKDSTYSLSSTLTLSKADYEKHKVYACEVTHQGLSSPVTKSFNRGEC | binds |
| huCBE11 altered antibody with mutation K290D (antibody, human IgG1, kappa, Position is in EU numbering) heavy: not shown light: DIQMTQSPSSLSASVGDRVTITCKAGQDIKSYLSWYQQKPGKAPKLLIYYATRLADGVPSRFSGSGSGTDYTLTISSLQPEDFATYYCLQHGESPWTFGGGTKLEIKRTVAAPSVFIFPPSDEQLKSGTASVVCLLNNFYPREAKVQWKVDNALQSGNSQESVTEQDSKDSTYSLSSTLTLSKADYEKHKVYACEVTHQGLSSPVTKSFNRGEC | binds |
| S304E (antibody, human IgG1, kappa, EU numbering, EU N297 = residue 300 of the chain; the sheets number them 2 and 4; also called huCBE11 altered antibody with mutation S304E; copies: 2 + 2) heavy: not shown light: DIQMTQSPSSLSASVGDRVTITCKAGQDIKSYLSWYQQKPGKAPKLLIYYATRLADGVPSRFSGSGSGTDYTLTISSLQPEDFATYYCLQHGESPWTFGGGTKLEIKRTVAAPSVFIFPPSDEQLKSGTASVVCLLNNFYPREAKVQWKVDNALQSGNSQESVTEQDSKDSTYSLSSTLTLSKADYEKHKVYACEVTHQGLSSPVTKSFNRGEC | binds |

The next lines start with the values.

| binding result | Binder |
| --- | --- |
| binds | E345R (antibody, EU numbering, EU N297 = residue 300 of the chain; the sheets number them 2 and 4; also called huCBE11 altered antibody with mutation E345R; copies: 2 + 2) heavy: not shown light: DIQMTQSPSSLSASVGDRVTITCKAGQDIKSYLSWYQQKPGKAPKLLIYYATRLADGVPSRFSGSGSGTDYTLTISSLQPEDFATYYCLQHGESPWTFGGGTKLEIKRTVAAPSVFIFPPSDEQLKSGTASVVCLLNNFYPREAKVQWKVDNALQSGNSQESVTEQDSKDSTYSLSSTLTLSKADYEKHKVYACEVTHQGLSSPVTKSFNRGEC |
| binds | L314K (antibody, EU numbering, EU N297 = residue 300 of the chain; the sheets number them 2 and 4; also called huCBE11 altered antibody with mutation L314K; copies: 2 + 2) heavy: not shown light: DIQMTQSPSSLSASVGDRVTITCKAGQDIKSYLSWYQQKPGKAPKLLIYYATRLADGVPSRFSGSGSGTDYTLTISSLQPEDFATYYCLQHGESPWTFGGGTKLEIKRTVAAPSVFIFPPSDEQLKSGTASVVCLLNNFYPREAKVQWKVDNALQSGNSQESVTEQDSKDSTYSLSSTLTLSKADYEKHKVYACEVTHQGLSSPVTKSFNRGEC |
| binds | H285D (antibody, human IgG1, kappa, EU numbering, EU N297 = residue 300 of the chain; the sheets number them 2 and 4; also called huCBE11 altered antibody with mutation H285D; copies: 2 + 2) heavy: not shown light: DIQMTQSPSSLSASVGDRVTITCKAGQDIKSYLSWYQQKPGKAPKLLIYYATRLADGVPSRFSGSGSGTDYTLTISSLQPEDFATYYCLQHGESPWTFGGGTKLEIKRTVAAPSVFIFPPSDEQLKSGTASVVCLLNNFYPREAKVQWKVDNALQSGNSQESVTEQDSKDSTYSLSSTLTLSKADYEKHKVYACEVTHQGLSSPVTKSFNRGEC |
| binds | V279E (antibody, human IgG1, kappa, EU numbering, EU N297 = residue 300 of the chain; the sheets number them 2 and 4; also called huCBE11 altered antibody with mutation V279E; copies: 2 + 2) heavy: not shown light: DIQMTQSPSSLSASVGDRVTITCKAGQDIKSYLSWYQQKPGKAPKLLIYYATRLADGVPSRFSGSGSGTDYTLTISSLQPEDFATYYCLQHGESPWTFGGGTKLEIKRTVAAPSVFIFPPSDEQLKSGTASVVCLLNNFYPREAKVQWKVDNALQSGNSQESVTEQDSKDSTYSLSSTLTLSKADYEKHKVYACEVTHQGLSSPVTKSFNRGEC |
| binds | E345Q (antibody, human IgG1, kappa, EU numbering, EU N297 = residue 300 of the chain; the sheets number them 2 and 4; also called huCBE11 altered antibody with mutation E345Q; copies: 2 + 2) heavy: not shown light: DIQMTQSPSSLSASVGDRVTITCKAGQDIKSYLSWYQQKPGKAPKLLIYYATRLADGVPSRFSGSGSGTDYTLTISSLQPEDFATYYCLQHGESPWTFGGGTKLEIKRTVAAPSVFIFPPSDEQLKSGTASVVCLLNNFYPREAKVQWKVDNALQSGNSQESVTEQDSKDSTYSLSSTLTLSKADYEKHKVYACEVTHQGLSSPVTKSFNRGEC |
| binds | H285F (antibody, EU numbering, EU N297 = residue 300 of the chain; the sheets number them 2 and 4; also called huCBE11 altered antibody with mutation H285F; copies: 2 + 2) heavy: not shown light: DIQMTQSPSSLSASVGDRVTITCKAGQDIKSYLSWYQQKPGKAPKLLIYYATRLADGVPSRFSGSGSGTDYTLTISSLQPEDFATYYCLQHGESPWTFGGGTKLEIKRTVAAPSVFIFPPSDEQLKSGTASVVCLLNNFYPREAKVQWKVDNALQSGNSQESVTEQDSKDSTYSLSSTLTLSKADYEKHKVYACEVTHQGLSSPVTKSFNRGEC |
| binds | V284D (antibody, human IgG1, kappa, EU numbering, EU N297 = residue 300 of the chain; the sheets number them 2 and 4; also called huCBE11 altered antibody with mutation V284D; copies: 2 + 2) heavy: not shown light: DIQMTQSPSSLSASVGDRVTITCKAGQDIKSYLSWYQQKPGKAPKLLIYYATRLADGVPSRFSGSGSGTDYTLTISSLQPEDFATYYCLQHGESPWTFGGGTKLEIKRTVAAPSVFIFPPSDEQLKSGTASVVCLLNNFYPREAKVQWKVDNALQSGNSQESVTEQDSKDSTYSLSSTLTLSKADYEKHKVYACEVTHQGLSSPVTKSFNRGEC |
| binds | D376N (antibody, EU numbering, EU N297 = residue 300 of the chain; the sheets number them 2 and 4; also called huCBE11 altered antibody with mutation D376N; copies: 2 + 2) heavy: not shown light: DIQMTQSPSSLSASVGDRVTITCKAGQDIKSYLSWYQQKPGKAPKLLIYYATRLADGVPSRFSGSGSGTDYTLTISSLQPEDFATYYCLQHGESPWTFGGGTKLEIKRTVAAPSVFIFPPSDEQLKSGTASVVCLLNNFYPREAKVQWKVDNALQSGNSQESVTEQDSKDSTYSLSSTLTLSKADYEKHKVYACEVTHQGLSSPVTKSFNRGEC |
| binds | huCBE11 altered antibody with mutation V282E (antibody, human IgG1, kappa, Position is in EU numbering) heavy: not shown light: DIQMTQSPSSLSASVGDRVTITCKAGQDIKSYLSWYQQKPGKAPKLLIYYATRLADGVPSRFSGSGSGTDYTLTISSLQPEDFATYYCLQHGESPWTFGGGTKLEIKRTVAAPSVFIFPPSDEQLKSGTASVVCLLNNFYPREAKVQWKVDNALQSGNSQESVTEQDSKDSTYSLSSTLTLSKADYEKHKVYACEVTHQGLSSPVTKSFNRGEC |
